Source: publication PMC6436656
Each block holds one binder with its values, some of them ahead of it.

Target: human GPR35 (GPR35a splice variant), receptor part of the hGPR35 SPASM sensors, Q9HC97
Test: BRET (hGPR35 SPASM sensor)
Settings: chain shown with the change, highest concentration, read off a plot
[1] = bufrolin, 1e-6 M, parent: est. 1.1
[2] = lodoxamide, 1e-6 M, parent: est. 1.1
[3] = pamoic acid, about 10^-5.5 M, parent: est. 1.0
[4] = zaprinast, 1e-4 M, parent: est. 1.1

human GPR35 (GPR35a splice variant), receptor part of the hGPR35 SPASM sensors, Q9HC97, sequence (Q9HC97 whole entry, change not shown, canonical isoform): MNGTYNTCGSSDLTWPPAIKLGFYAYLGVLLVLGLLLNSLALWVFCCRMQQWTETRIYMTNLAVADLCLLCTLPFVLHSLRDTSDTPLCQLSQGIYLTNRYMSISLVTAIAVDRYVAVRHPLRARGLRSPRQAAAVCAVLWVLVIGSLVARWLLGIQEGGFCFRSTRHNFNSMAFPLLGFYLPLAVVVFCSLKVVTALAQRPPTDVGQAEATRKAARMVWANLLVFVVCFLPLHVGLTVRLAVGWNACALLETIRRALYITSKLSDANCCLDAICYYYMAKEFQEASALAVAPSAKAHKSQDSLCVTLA

response (BRET ratio (fold change)) [1]: 1.1
response (BRET ratio (fold change)) [2]: 1.2
response (BRET ratio (fold change)) [3]: 1.1
response (BRET ratio (fold change)) [4]: 1.2
B1: final 27 aa of Gα12, G peptide of the hGPR35-Gα12 SPASM sensor, Q03113 G.H5.22 Asp to Gln (peptide)
chain: DTENVRFVFHAVKDTILQENLKQIMLQ

response (BRET ratio (fold change)) [1]: 1.4
response (BRET ratio (fold change)) [2]: 1.4
response (BRET ratio (fold change)) [3]: 1.1
response (BRET ratio (fold change)) [4]: 1.4
B2: final 27 aa of Gα12, G peptide of the hGPR35-Gα12 SPASM sensor, Q03113 G.H5.23 Ile to Leu (peptide)
chain: DTENVRFVFHAVKDTILQENLKDLMLQ
